{
  "source": "paper PMC9381713",
  "about": "“Structural features of Dnase1L3 responsible for serum antigen clearance”",
  "key": {"[1]": {"system": "Dnase1", "experiment": "fluorescence polarization", "conditions": "FP: 50 mM Hepes pH 7.5 (Results say pH 7.4), 100 mM NaCl, 0.1 mM EDTA (1 mM for Dnase1L3/Dnase1), 1% glycerol, 1 mM TCEP, 0.1% PEG 6000, 20 nM dsDNA, 30 min at …"}, "[2]": {"biological_target": "T1, Dnase1L3 CTD peptide (cleaved from SH3-CTD) (human, UniProt Q13609)", "T1 chain": "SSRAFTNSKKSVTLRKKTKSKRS", "experiment": "fluorescence polarization; 100 mM NaCl, 0.1 mM EDTA; FP: 50 mM Hepes pH 7.5 (Results say pH 7.4), 100 mM NaCl, 0.1 mM EDTA (1 mM for Dnase1L3/Dnase1), 1% glycerol, 1 mM TCEP, 0.1% PEG 6000, 20 nM dsDNA, 30 min at", "conditions": "protein: recombinant; tags: TEV-cleaved from His-SH3 fusion; label: 5'-FAM on strand 1; blunt"}, "[3]": {"biological_target": "T2, Dnase1L3 R132A (human, UniProt Q13609 21-305, R132A)", "T2 sequence": "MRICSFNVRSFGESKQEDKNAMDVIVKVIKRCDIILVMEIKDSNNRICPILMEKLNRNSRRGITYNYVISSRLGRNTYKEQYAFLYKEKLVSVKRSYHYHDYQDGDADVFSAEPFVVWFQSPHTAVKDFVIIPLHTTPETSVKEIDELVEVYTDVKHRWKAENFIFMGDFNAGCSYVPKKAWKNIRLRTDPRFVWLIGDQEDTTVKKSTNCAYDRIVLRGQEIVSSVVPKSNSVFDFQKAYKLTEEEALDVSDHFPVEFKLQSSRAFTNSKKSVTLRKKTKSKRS", "experiment": "fluorescence polarization; 1 mM EDTA; FP: 50 mM Hepes pH 7.5 (Results say pH 7.4), 100 mM NaCl, 0.1 mM EDTA (1 mM for Dnase1L3/Dnase1), 1% glycerol, 1 mM TCEP, 0.1% PEG 6000, 20 nM dsDNA, 30 min at", "conditions": "protein: recombinant; blunt"}, "[4]": {"biological_target": "T3, Dnase1L3 WT (human, UniProt Q13609 21-305)", "T3 sequence": "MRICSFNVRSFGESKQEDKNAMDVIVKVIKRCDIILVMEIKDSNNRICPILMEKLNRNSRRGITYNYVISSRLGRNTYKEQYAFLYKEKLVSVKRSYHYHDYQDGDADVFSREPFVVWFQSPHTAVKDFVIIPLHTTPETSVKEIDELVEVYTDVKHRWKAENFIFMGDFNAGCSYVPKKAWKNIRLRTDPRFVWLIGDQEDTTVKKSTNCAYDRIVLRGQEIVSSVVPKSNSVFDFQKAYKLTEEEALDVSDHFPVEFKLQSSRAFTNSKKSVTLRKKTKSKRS", "experiment": "fluorescence polarization; 1 mM EDTA; FP: 50 mM Hepes pH 7.5 (Results say pH 7.4), 100 mM NaCl, 0.1 mM EDTA (1 mM for Dnase1L3/Dnase1), 1% glycerol, 1 mM TCEP, 0.1% PEG 6000, 20 nM dsDNA, 30 min at", "conditions": "protein: recombinant; tags: His-MBP removed by TEV; blunt"}},
  "data": [
    {"molecule": "GTGTTCGGACTCTGCCTCAAGACGGTAGTCAACGTGCTTG (double strand) [FITC 40-mer dsDNA]", "values": [
      {"measurement": "Kd", "setting": "[1]", "result": 2.9, "unit": "µM"}
    ]},
    {"molecule": "FAM 40-mer dsDNA (dsDNA) DNA 1: GTGTTCGGACTCTGCCTCAAGACGGTAGTCAACGTGCTTG DNA 2: CAAGCACGTTGACTACCGTCTTGAGGCAGAGTCCGAACAC", "values": [
      {"measurement": "Kd", "setting": "[2]", "result": 4.9, "unit": "µM"}
    ]},
    {"molecule": "FITC 40-mer dsDNA (dsDNA) DNA 1: GTGTTCGGACTCTGCCTCAAGACGGTAGTCAACGTGCTTG DNA 2: CAAGCACGTTGACTACCGTCTTGAGGCAGAGTCCGAACAC", "values": [
      {"measurement": "Kd", "setting": "[3]", "result": 4.95, "unit": "µM"},
      {"measurement": "Kd", "setting": "[4]", "result": "0.99 ± 0.33", "unit": "µM"}
    ]}
  ]
}
